Measured values as given in patent US20230414735A1, “NEOANTIGENS AND METHODS OF THEIR USE” (priority 2016, published 2023).

Columns and labels:
HLA-B08:01 (human) [1] = assay: competition with 125I probe peptide on purified HLA
HLA-B08:01 (human) [2] = assay: pMHC-I dissociation, 125I-b2m; conditions: remark: other sources report otherwise
HLA-B08:01 (human) [3] = assay: competition with 125I probe peptide for purified HLA class I; conditions: remark: other sources report otherwise

Binder	IC50 (HLA-B08:01 (human) [1]) [nM]	Stability (T1/2 (h)) (HLA-B08:01 (human) [2]) [h]	IC50 (HLA-B08:01 (human) [3]) [nM]
SLRRKYLRV	0.4		
MALNSEALSV		0	
CMGSMNRRPI			80
LPRKPTRAA		0	
NQRPILTII			20
MNWRPILTI		0	1
GMNWRPILTI		0	
